Results published in article PMC13121748, “Phase separation of PGL-3 driven by structured domains that oligomerize and interact with RGG motifs” (EMBO Reports, 2025).
Several values for one entry are separate records, joined by “and”; a condition that tells them apart may be missing. Equal values may be shown once. Blank lines part the entries; values can stand above or below the binder they belong to.

Tests used:
[1] = target: the molecule itself; experiment: cross-linking; XL-MS: 7.5 uM full-length PGL-3, 2 mM DSBU, 1 h room temperature, 25 mM HEPES pH 7.5, 125 mM NaCl (condensing) or 500 mM NaCl (non-condensing); trypsin digest, LC-MS/MS, Scout search
[2] = target: the molecule itself; experiment: mass photometry; unlabeled D1-D2 at 50 to 100 nM in 125 mM NaCl, 25 mM HEPES pH 7.5, TwoMP (Refeyn)
[3] = target: T1, PGL-3 RGG region peptide (native) (Caenorhabditis elegans, UniProt G5EBV6 623-693); experiment: BLI; RNA on tip, RGG peptide in solution; 1:1 fit; KD ~2-fold higher than RGG:D1, value not given; BLI: 25 mM HEPES pH 7.5, 125 mM NaCl, 0.01 mg/ml BSA, 0.02% Tween-20, temperature not stated; condensate assays at 125 mM NaCl; details: tags: none; unlabeled in BLI; label: 5' biotin; single strand
T1 sequence: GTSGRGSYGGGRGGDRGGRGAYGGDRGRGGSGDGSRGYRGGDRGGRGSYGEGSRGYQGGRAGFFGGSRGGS

[4] = target: PGL-3(D1-D2) (C. elegans) (UniProt G5EBV6)
[5] = target: PGL-3(D1-D2) (C. elegans) (UniProt G5EBV6); remark: listed apart in the source
[6] = target: PGL-3(D1-D2) (C. elegans) (UniProt G5EBV6); remark: listed apart in the source
PGL-3(D1) [7] = target: T2, PGL-3(D1) (C. elegans, trace-labelled with DyLight 488 (NHS ester) in the FA crosslinking; biotinylated with NHS-PEG12-Biotin when immobilised in BLI); experiment: BLI; biotinylated D1 on streptavidin tips, RGG peptide in solution; 125 mM NaCl, 0.01 mg/ml BSA, 0.02% Tween-20, 25 mM HEPES pH 7.5; 1:1 binding model; Octet Red96
T2 chain: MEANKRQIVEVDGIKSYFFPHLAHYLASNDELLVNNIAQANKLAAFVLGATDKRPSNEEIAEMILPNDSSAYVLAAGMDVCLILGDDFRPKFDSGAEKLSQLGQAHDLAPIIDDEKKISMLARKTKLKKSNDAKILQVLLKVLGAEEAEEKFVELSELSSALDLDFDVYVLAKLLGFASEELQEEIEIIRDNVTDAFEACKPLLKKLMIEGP

PGL-3(D1) [8] = target: T2, PGL-3(D1); experiment: BLI

B1: full-length, untagged PGL-3 (natural protein, C. elegans, UniProt G5EBV6 1-693, looked up)
chain: MEANKRQIVEVDGIKSYFFPHLAHYLASNDELLVNNIAQANKLAAFVLGATDKRPSNEEIAEMILPNDSSAYVLAAGMDVCLILGDDFRPKFDSGAEKLSQLGQAHDLAPIIDDEKKISMLARKTKLKKSNDAKILQVLLKVLGAEEAEEKFVELSELSSALDLDFDVYVLAKLLGFASEELQEEIEIIRDNVTDAFEACKPLLKKLMIEGPKIDSVDPFTQLLLTPQEESIEKAVSHIVARFEEASAVEDDESLVLKSQLGYQLIFLVVRSLADGKRDASRTIQSLMPSSVRAEVFPGLQRSVFKSAVFLASHIIQVFLGSMKSFEDWAFVGLAEDLESTWRRRAIAELLKKFRISVLEQCFSQPIPLLPQSELNNETVIENVNNALQFALWITEFYGSESEKKSLNQLQFLSPKSKNLLVDSFKKFAQGLDSKDHVNRIIESLEKSSSSEPSATAKQTTTSNGPTTVSTAAQVVTVEKMPFSRQTIPCEGTDLANVLNSAKIIGESVTVAAHDVIPEKLNAEKNDNTPSTASPVQFSSDGWDSPTKSVALPPKISTLEEEQEEDTTITKVSPQPQERTGTAWGSGDATPVPLATPVNEYKVSGFGAAPVASGFGQFASSNGTSGRGSYGGGRGGDRGGRGAYGGDRGRGGSGDGSRGYRGGDRGGRGSYGEGSRGYQGGRAGFFGGSRGGS
notes: PGL-3, C. elegans P granule protein, full length (D1, D2, internal IDR, C-terminal RGG region; residues to 693); also called PGL-3(FL); FL; not shown: 6xHis-MBP-6xHis, N-terminal, cleaved
- binding result [1]: binds

B2: PGL-3(D1-D2) (domain or fragment, C. elegans, UniProt G5EBV6 1-447, looked up)
chain: MEANKRQIVEVDGIKSYFFPHLAHYLASNDELLVNNIAQANKLAAFVLGATDKRPSNEEIAEMILPNDSSAYVLAAGMDVCLILGDDFRPKFDSGAEKLSQLGQAHDLAPIIDDEKKISMLARKTKLKKSNDAKILQVLLKVLGAEEAEEKFVELSELSSALDLDFDVYVLAKLLGFASEELQEEIEIIRDNVTDAFEACKPLLKKLMIEGPKIDSVDPFTQLLLTPQEESIEKAVSHIVARFEEASAVEDDESLVLKSQLGYQLIFLVVRSLADGKRDASRTIQSLMPSSVRAEVFPGLQRSVFKSAVFLASHIIQVFLGSMKSFEDWAFVGLAEDLESTWRRRAIAELLKKFRISVLEQCFSQPIPLLPQSELNNETVIENVNNALQFALWITEFYGSESEKKSLNQLQFLSPKSKNLLVDSFKKFAQGLDSKDHVNRIIESLEK
modifications: unlabeled in mass photometry; trace-labelled with DyLight 488 (partitioning) or Alexa Fluor 647 (pelleting) by NHS ester
notes: PGL-3, C. elegans, the first 447 amino acids, which span the folded domains D1 and D2; also called D1-D2 domain; not shown: 6xHis-MBP-6xHis, N-terminal, cleaved
- stoichiometry N [2]: 2 and 4 and 6

Binder: UUUUUUUUUUUUUUUUUUUUUUUUUUUUUU (ssRNA) [poly(U) 30-nt RNA]
- binding result [3]: binds

- partition coefficient of the RGG peptide in D1-D2 condensates (5 uM each, in trans) [4]: 1.3
- fraction of D1-D2 in the pellet (dense phase) with equimolar RGG peptide against buffer control [5]: 15%
- viscosity of D1-D2 condensates formed with equimolar RGG peptide against buffer (embedded beads) [6]: 1.25 fold
- fold faster koff than RGG:poly(U) RNA (PGL-3(D1) [7]): 10 fold
- fold faster kon than RGG:poly(U) RNA (PGL-3(D1) [7]): 20 fold
- fold lower KD than RGG:poly(U) RNA (PGL-3(D1) [7]): 2 fold
- Kd (PGL-3(D1) [8]): 1630 nM
B3: PGL-3(RGG) synthetic peptide spanning the RGG region (peptide)
chain: T1 sequence
modifications: trace-labelled with Alexa Fluor 647 (NHS ester) in the FA crosslinking and partitioning; biotinylated with NHS-PEG12-Biotin when immobilised in BLI
